This is an account of results in PMC11848828.

In assay [1] the target is Human 14-3-3ζ protein (human) (UniProt P63104). Nature of the assay: ITC. (In general: In ITC the heat of successive injections is recorded.)
Assay [2] has the same target. Nature of the assay: real-time 1D 1H NMR.

Chain of UniProt P63104 (P63104 whole entry): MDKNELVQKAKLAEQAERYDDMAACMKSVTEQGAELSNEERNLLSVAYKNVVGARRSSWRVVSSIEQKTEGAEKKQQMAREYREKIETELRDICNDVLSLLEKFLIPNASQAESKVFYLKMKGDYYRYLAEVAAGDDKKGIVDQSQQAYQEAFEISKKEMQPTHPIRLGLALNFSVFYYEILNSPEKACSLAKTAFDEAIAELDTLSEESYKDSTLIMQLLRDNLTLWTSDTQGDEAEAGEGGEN

In assay [1], PRLR W392L variant peptide showed a Kd of 13 µM.
In turn, “PRLR WT peptide (21-residue phosphorylated fragment of the human prolactin receptor intracellular domain, pThr391)” displayed a dH in assay [1] of -5.62 kcal/mol. In assay [2], this substance came in with a concentration of the cis isomer bound instantly (t0) of 101 µM.
In assay [1], PRLR W392A variant peptide gave a Kd of 4 µM and a dH of -8.17 kcal/mol.
In assay [1], PRLR W392Y variant peptide showed a Kd, two-sets-of-sites model, first set of 0.4 µM; a Kd, two-sets-of-sites model, second set of 2.3 µM; a dH of -4.88 kcal/mol; a dH of the cis proline isomer of -4.64 kcal/mol. In addition, in assay [1], the dH of the trans proline isomer is -5.4 kcal/mol.
In assay [1], PRLR P393V variant peptide displayed a Kd of 28 µM and a dH of -3.08 kcal/mol.

The term Kd denotes the free concentration of one partner at which half of the binding sites on the other are occupied at equilibrium, for simple one-to-one binding. A higher Kd goes with lower affinity.
